{"source": "patent US12246067", "binders": {"B1": {"name": "KRAS, G12D peptide … (peptide)", "peptide": "LVVVGADGV"}, "B2": {"name": "KRAS, G12V peptide … (peptide)", "peptide": "LVVVGAVGV"}, "B3": {"name": "KRAS, G12C peptide … (peptide)", "peptide": "LVVVGACGV"}}}
{"target": "HLA-A02.01 (human)", "test": "peptide-HLA class I affinity, method not described", "details": "remark: other sources report otherwise", "units": {"Measured Affinity": "nM"}}
{"binder": "B1", "Measured Affinity": 977}
{"binder": "B2", "Measured Affinity": 682}
{"binder": "B3", "Measured Affinity": 667}
{"target": "HLA-A02.01 (human)", "test": "peptide-HLA class I complex stability, method not described", "details": "remark: other sources report otherwise", "units": {"Measured stability": "h"}}
{"binder": "B1", "Measured stability": 0}
{"binder": "B2", "Measured stability": 0.6}
{"binder": "B3", "Measured stability": 0.6}
